Data from the supplement of paper PMC12338614.

B1: library; numbered along this chain (parent)
chain: MEVVDPQQLGMFTEGELMSVGMDTFIHRIDSTEVIYQPRRKRAKLIGKYLMGDLLGEGSYGKVKEVLDSETLCRRAVKILKKKKLRRIPNGEANVKKEIQLLRRLRHKNVIQLVDVLYNEEKQKMYMVMEYCVCGMQEMLDSVPEKRFPVCQAHGYFCQLIDGLEYLHSQGIVHKDIKPGNLLLTTGGTLKISDLGVAEALHPFAADDTCRTSQGSPAFQPPEIANGLDTFSGFKVDIWSAGVTLYNITTGLYPFEGDNIYKLFENIGKGSYAIPGDCGPPLSDLLKGMLEYEPAKRFSIRQIRQHSWFRKKHPPAEAPVPIPPSPDTKDRWRSMTVVPYLEDLHGADEDEDLFDIEDDIIYTQDFTVPGQVPEEEASHNGQRRGLPKAVCMNGTEAAQLSTKSRAEGRAPNPARKACSASSKIRRLSACKQQ

Variants of: B1
Assay: STK11 functional score (HeLa growth suppression), rescaled enrichment; synonymous median = 1, nonsense median = 0 (normalised score)
Conditions: with HeLa; variant type: missense
Method in brief: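 HeLa cells carrying an AAVS1 landing pad received codon-optimised STK11 libraries made by codon randomisation (POPCode), integrated by Bxb1, with three regions each transfected three times. Integrants that were BFP-negative and mCherry-positive were sorted by FACS 4–5 days after electroporation and then grown for about two weeks. Tiled amplicons from gDNA were sequenced on NextSeq at ~2 million reads per tile. The functional score is a wild-type-corrected log ratio of post- to pre-selection counts, rescaled to the synonymous and nonsense medians, merged across codons and replicate transfections, and given a bootstrapped error.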

STK11 functional score: each site, then its substitutions
P387: I 1.54; E 1.6; Q 1.37; F 1.14; K 1; Y 0.935; H 1.45; D 1.56; N 1.63; W 1.62; L 1.02; M 1.44; V 1.13; C 1.54; A 1.32; T 1.56; G 1.58; S 1.41; R 1.47
A377: E -0.00596; R 1.6; Q 1.59; I 1.55; K 1.63; S 1.24; V 1.31; Y 1.49; L 1.04; T 1.59; H 0.0602; P 1.4; W 0.843; G 1.01; M 1.51
E374: R 1.61; T 1.52; P 1.42; G 1.12; I 1.46; K 1.47; V 0.836; L 1.2; A 0.915; F 1.33; H 1.06; S 1.46; D 0.971; Y 1.29; C 1.51; Q 0.822; W 1.55
R383: I 1.57; W 0.781; N 1.5; G 1.11; A 1.44; E 1.57; Q 1.51; C 1.22; F 1.2; L 1.42; S 1.3; M 1.59; P 1.31; K 1.57; T 1.56; V 1.25; H 1.57; Y 1.25; D 1.49
E375: T 0.94; K 1.56; G 1.49; D 1.58; H 1.24; C 1.31; S 1.39; R 1.46; W 1.54; Y 1.52; Q 1.12; L 1.04; F 1.29; I 1.59; A 1.13; N 1.47; V 1.27; P 1.53
A389: T 1.25; K 1.61; W 1.04; Q 1.18; F 1.33; R 1.56; S 1.38; C 1.51; I 1.59; P 1.3; H 1.51; Y 1.15; V 0.744; D 1.2; G 1.46; L 1.54; E 1.52
G370: P 1.59; L 1.42; W 1.41; I 1.6; V 0.706; Q 1.55; R 1.16; S 1.52
G385: T 1.58; N 1.59; A 1.46; D 1.3; M 1.59; E 1.41; H 1.56; Q 1.57; I 1.45; L 0.869; F 1.36; K 1.6; P 1.26; V 0.433; W 1.28; S 1.51; R 1.13
P373: V 0.868; T 1.11; L 1.13; R 0.782; D 1.58; N 1.59; I 1.31; E 1.51; M 1.56; S 1.44; C 1.32; H 1.49; W 1.6; Q 1.55; F 1.26; G 1.53; A 1.08
V372: D 1.53; G 1.09; L 1.4; N 1.54; S 1.44; A 1.48; P 1.48; Q 1.49; F 1.12; W 1.09; E 1.23; H 1.61; M 0.74; T 1.5; Y 1.48; K 1.6; R 1.42
S378: M 1.11; T 1.4; W 0.76; V 1.04; L 0.82; Q 0.786; Y 1.35; P 1.38; C 1.42; I 1.26; G 0.914; K 1.6; N 1.56; R 1.16; D 1.5; A 1.44; F 1.41
R384: N 1.54; P 1.56; Q 1.62; D 1.2; A 1.33; W 1.35; M 1.36; L 1.43; G 1.28; Y 1.53; V 1.22; F 1.55; S 1.53; C 1.14; H 1.47; I 1.06; T 1.15; E 1.53
Q382: C 1.15; M 1.52; P 1.35; R 1.48; H 1.15; A 1.38; F 1.14; T 1.29; V 1.12; S 1.5; I 1.31; L 1.34; K 1.11; W 1.06; G 1.4; D 1.47; Y 1.28; E 1.2
N380: C 1.57; W 1.04; T 1.31; Q 1.47; V 1.12; L 0.908; A 1.51; Y 1.14; K 1.42; S 0.982; R 1.56; H 1.48; I 1.04; E 1.48; P 1.59; G 1.57; M 1.55; F 1.06
K388: W 1.5; P 0.884; Q 1.21; D 1.31; E 1.42; S 1.19; I 0.996; H 1.12; V 1.3; G 1.31; Y 1.07; T 1.42; F 1.24; N 1.53; A 1.17; R 1.54; M 1.39; L 0.826
Q371: M 1.46; A 1.6; V 1.49; P 1.3; G 1.03; H 1.15; E 1.26; F 1.12; D 1.43; Y 1.04; I 1.52; R 1.55; C 1.36; L 1.44; W 0.748; S 1.32
E376: C 1.46; R 1.39; A 1.4; T 1.55; K 1.41; M 0.943; D 0.267; L 1.42; F 1.35; H 0.914; Q 0.896; I 1.54; P 1.31; S 1.57; Y 1.56; V 1.07; W 0.781; G 1.18
G381: V 0.684; T 1.6; A 1.09; K 1.59; H 1.6; R 1.48; I 1.57; D 1.57; C 1.1; S 1.36; W 1.05; F 1.13; L 1.24; P 1.61; Y 1.37; M 1.57
H379: M 1.52; L 1.09; A 1.38; E 0.586; P 1.46; K 1.37; T 1.31; G 1.11; F 1.1; R 1.36; S 1.55; W 0.788; V 1.46; Y 1.39; I 1.53; D 1.18
L386: C 1.31; S 1.45; W 1.13; T 1.6; A 1.6; E 1.55; V 1.06; N 0.528; F 0.706; P 0.743; Q 1.37; R 1.43; G 1.19; I 1.14; H 0.959
